Results as given in PMC10570131, “TXNL1 has dual functions as a redox active thioredoxin-like protein as well as an ATP- and redox-independent chaperone” (Redox Biology, 2023).

Molecular target: the molecule itself
Assay: non-reducing SDS-PAGE with Western blot; pure control proteins and chromatography fractions separated on SDS-PAGE without or with DTT, blotted with anti-TXNL1 or anti-Trx1

B1: Thioredoxin (Trx1), human (natural protein, UniProt P10599-1 1-105, looked up)
chain: MVKQIESKTAFQEALDAAGDKLVVVDFSATWCGPCKMIKPFFHSLSEKYSNVIFLEVDVDDCQDVASECEVKCMPTFQFFKKGQKVGEFSGANKEKLEATINELV
notes: also called TXN; not shown: His6, N-terminal, cleaved; GFP, N-terminal, cleaved; SUMO, N-terminal, cleaved
B1: binds.

B2: Thioredoxin-like protein 1 (TXNL1), human, wildtype (natural protein, UniProt O43396 1-289, looked up)
chain: MVGVKPVGSDPDFQPELSGAGSRLAVVKFTMRGCGPCLRIAPAFSSMSNKYPQAVFLEVDVHQCQGTAATNNISATPTFLFFRNKVRIDQYQGADAVGLEEKIKQHLENDPGSNEDTDIPKGYMDLMPFINKAGCECLNESDEHGFDNCLRKDTTFLESDCDEQLLITVAFNQPVKLYSMKFQGPDNGQGPKYVKIFINLPRSMDFEEAERSEPTQALELTEDDIKEDGIVPLRYVKFQNVNSVTIFVQSNQGEEETTRISYFTFIGTPVQATNMNDFKRVVGKKGESH
notes: human TXNL1, open reading frame synthesised codon-optimised for E. coli; N-terminal Trx-fold domain (active site CGPC) and C-terminal PITH domain; also called TRP32; thioredoxin related protein of 32 kDa; not shown: His6, N-terminal, cleaved; GFP, N-terminal, cleaved; SUMO, N-terminal, cleaved
B2: binds.
